According to patent US20240384288A1, “COUMARIN TRANSPORTERS AND USES THEREOF” (BASF PLANT SCIENCE COMPANY GMBH, priority 2021, published 2024):

Test system: leaves of N. benthamiana plants
Experiment: Transient expression of coumarin transporter in N. benthamiana leaves, coumarins in leaf wash water / leaves by HPLC
Format: in vivo
Method: Droplets of double-distilled water (30 μl) were evenly distributed on the surface of detached leaves placed in a petri dish (approx. 40 droplets on sunflower, 20 droplets on N. benthamiana). Samples were kept at RT for 24 h at high humidity. Subsequently, droplets were carefully collected without touching the leaf surface, filtered and used for HPLC analysis or germination assays.
For transient in planta overexpression assays cDNA sequences of GOIs were cloned in the plant overexpression vector pB7WG2D13 using the Gateway® cloning technology. Similar cloning steps are performed to generate transient in-planta overexpression constructs for any of the other coumarin transporter proteins A0A251U1Q8_HELAN, A0A5N6LHL1_9ASTR, A0A 1I9L1U9_ARTAN, A0A2J6KQ56_LACSA and A0A2G2ZJV1_CAPAN with A0A1S3XDP1_TOBAC as control. […]
Coumarin methanol extracts were centrifuged for 10 min at 21,000 rcf and 70 μl of the supernatant were separated via HPLC on a reverse phase C18 column (KROMAPLUS 100-5-C18 5.0, Prontosil). ddH2O and acetonitrile, both containing 1.5% (v/v) acetic acid, were used as solvents. […] Coumarin fluorescence was detected at λ=335 nm excitation and λ=460 nm emission (FP 920 Intelligent Fluorescence Detector, Jasco) or at λ=342 nm (UV absorbance). […] For quantification, a standard curve of commercial standards with known concentrations was measured.

B1: AtPDR9: already published Arabidopsis thaliana coumarin transporter, used as control (protein, UniProt Q9LFH0 1-1450, looked up)
ABC transporter G family …: MAHMVGADDIESLRVELAEIGRSIRSSFRRHTSSFRSSSSIYEVENDGDVNDHDAEYALQWAEIERLPTVKRMRSTLLDDGDESMTEKGRRVVDVTKLGAVERHLMIEKLIKHIENDNLKLLKKIRRRIDRVGMELPTIEVRYESLKVVAECEVVEGKALPTLWNTAKRVLSELVKLTGAKTHEAKINIINDVNGIIKPGRLTLLLGPPSCGKTTLLKALSGNLENNLKCSGEISYNGHRLDEFVPQKTSAYISQYDLHIAEMTVRETVDFSARCQGVGSRTDIMMEVSKREKEKGIIPDTEVDAYMKAISVEGLQRSLQTDYILKILGLDICAEILIGDVMRRGISGGQKKRLTTAEMIVGPTKALFMDEITNGLDSSTAFQIVKSLQQFAHISSATVLVSLLQPAPESYDLFDDIMLMAKGRIVYHGPRGEVLNFFEDCGFRCPERKGVADFLQEVISKKDQAQYWWHEDLPYSFVSVEMLSKKFKDLSIGKKIEDTLSKPYDRSKSHKDALSFSVYSLPNWELFIACISREYLLMKRNYFVYIFKTAQLVMAAFITMTVFIRTRMGIDIIHGNSYMSALFFALIILLVDGFPELSMTAQRLAVFYKQKQLCFYPAWAYAIPATVLKVPLSFFESLVWTCLSYYVIGYTPEASRFFKQFILLFAVHFTSISMFRCLAAIFQTVVASITAGSFGILFTFVFAGFVIPPPSMPAWLKWGFWANPLSYGEIGLSVNEFLAPRWNQMQPNNFTLGRTILQTRGMDYNGYMYWVSLCALLGFTVLFNIIFTLALTFLKSPTSSRAMISQDKLSELQGTEKSTEDSSVRKKTTDSPVKTEEEDKMVLPFKPLTVTFQDLNYFVDMPVEMRDQGYDQKKLQLLSDITGAFRPGILTALMGVSGAGKTTLLDVLAGRKTSGYIEGDIRISGFPKVQETFARVSGYCEQTDIHSPNITVEESVIYSAWLRLAPEIDATTKTKFVKQVLETIELDEIKDSLVGVTGVSGLSTEQRKRLTIAVELVANPSIIFMDEPTTGLDARAAAIVMRAVKNVADTGRTIVCTIHQPSIDIFEAFDELVLLKRGGRMIYTGPLGQHSRHIIEYFESVPEIPKIKDNHNPATWMLDVSSQSVEIELGVDFAKIYHDSALYKRNSELVKQLSQPDSGSSDIQFKRTFAQSWWGQFKSILWKMNLSYWRSPSYNLMRMMHTLVSSLIFGALFWKQGQNLDTQQSMFTVFGAIYGLVLFLGINNCASALQYFETERNVMYRERFAGMYSATAYALGQVVTEIPYIFIQAAEFVIVTYPMIGFYPSAYKVFWSLYSMFCSLLTFNYLAMFLVSITPNFMVAAILQSLFYVGFNLFSGFLIPQTQVPGWWIWLYYLTPTSWTLNGFISSQYGDIHEEINVFGQSTTVARFLKDYFGFHHDLLAVTAVVQIAFPIALASMFAFFVGKLNFQRR
Scopoletin content in leaf wash water (LWW) (transporter transiently coexpressed with F6'H1, versus biosynthesis gene without transporter): no increased coumarin secretion | Scoparone content in leaf wash water (LWW) (transporter transiently coexpressed with F6'H1 plus OMT3, versus biosynthesis genes without transporter): no increased coumarin secretion
